Laboratory results from US20250145729A1 (DENALI THERAPEUTICS, published 2025).

Columns and labels:
[1] = biological target: T1, circularly permuted cyno TfR apical domain (cynomolgus monkey); assay: SPR, supernatant, anti-Fab capture
T1 construct: same design as the human construct; also called cyTfR Apical Domain; cynomolgus TfR apical domain
T1 chain: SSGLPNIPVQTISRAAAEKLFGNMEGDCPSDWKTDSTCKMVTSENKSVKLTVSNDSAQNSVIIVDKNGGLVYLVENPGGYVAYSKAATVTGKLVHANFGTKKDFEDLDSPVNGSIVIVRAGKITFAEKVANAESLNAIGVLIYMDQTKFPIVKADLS
Description: (§1) Clones were expressed in HEK293 cells. Supernatants were captured for SPR by GE Healthcare anti-human Fab capture kit and the affinity to human and cyno TfR apical domain was measured (Table 30). The clones in Table 30 were bivalent and each TfR-binding Fc polypeptide also contained P329G and LALA mutations.

[2] = biological target: T2, circularly permuted human TfR apical domain (human); assay: SPR, supernatant, anti-Fab capture
T2 construct: TfR residues 326-379 stand N-terminal to 194-296, loop 297-325 deleted; also called huTfR Apical Domain
T2 chain: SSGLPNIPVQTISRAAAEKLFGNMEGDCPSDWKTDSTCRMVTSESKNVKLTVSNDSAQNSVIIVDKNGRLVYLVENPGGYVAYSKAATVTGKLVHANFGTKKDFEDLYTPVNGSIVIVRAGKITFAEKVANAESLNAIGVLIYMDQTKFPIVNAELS
Description: as §1

B1: 42.8.190 (Fc fusion)
chain: APEAAGGPSVFLFPPKPKDTLMISRTPEVTCVVVDVSHEDPEVKFNWYVDGVEVHNAKTKPREEQYNSTYRVVSVLTVLHQDWLNGKEYKCKVSNKALGAPIEKTISKAKGQPREPQVYTLPPSRDELTKNQVSLTCLVKGFYPSDIAVEWFYEGSKLNNYKTTPPVLDSDGSFFLYSKLTVDKSRWQQGNLFACEVMHEALHNHYTYKLLSLSPGK
notes: bivalent; P329G+LALA
Kd [1]: 9.78 µM
Kd [2]: 1.31 µM

B2: 42.8.196 (Fc fusion)
chain: APEAAGGPSVFLFPPKPKDTLMISRTPEVTCVVVDVSHEDPEVKFNWYVDGVEVHNAKTKPREEQYNSTYRVVSVLTVLHQDWLNGKEYKCKVSNKALGAPIEKTISKAKGQPREPQVYTLPPSRDELTKNQVSLTCLVKGFYPSDIAVEWFYEAQKLNNYKTTPPVLDSDGSFFLYSKLTVDKSRWQQGNLFACEVMHEALHNHYTYKLLSLSPGK
notes: bivalent; P329G+LALA
Kd [1]: 9.34 µM
Kd [2]: 0.924 µM

B3: 42.8.203 (Fc fusion)
chain: APEAAGGPSVFLFPPKPKDTLMISRTPEVTCVVVDVSHEDPEVKFNWYVDGVEVHNAKTKPREEQYNSTYRVVSVLTVLHQDWLNGKEYKCKVSNKALGAPIEKTISKAKGQPREPQVYTLPPSRDELTKNQVSLTCLVKGFYPSDIAVEWFYEASKLTNYKTTPPVLDSDGSFFLYSKLTVDKSRWQQGNLFACEVMHEALHNHYTYKLLSLSPGK
notes: bivalent; P329G+LALA
Kd [1]: 5.46 µM
Kd [2]: 0.394 µM

B4: 42.8.205 (Fc fusion)
chain: APEAAGGPSVFLFPPKPKDTLMISRTPEVTCVVVDVSHEDPEVKFNWYVDGVEVHNAKTKPREEQYNSTYRVVSVLTVLHQDWLNGKEYKCKVSNKALGAPIEKTISKAKGQPREPQVYTLPPSRDELTKNQVSLTCLVKGFYPSDIAVEWFYEDQKENNYKTTPPVLDSDGSFFLYSKLTVDKSRWQQGNLFACEVMHEALHNHYTYKLLSLSPGK
notes: bivalent; P329G+LALA
Kd [1]: 11.4 µM
Kd [2]: 1.13 µM

B5: 42.8.198 (Fc fusion)
chain: APEAAGGPSVFLFPPKPKDTLMISRTPEVTCVVVDVSHEDPEVKFNWYVDGVEVHNAKTKPREEQYNSTYRVVSVLTVLHQDWLNGKEYKCKVSNKALGAPIEKTISKAKGQPREPQVYTLPPSRDELTKNQVSLTCLVKGFYPSDIAVEWFYEAQKLSNYKTTPPVLDSDGSFFLYSKLTVDKSRWQQGNLFACEVMHEALHNHYTYKLLSLSPGK
notes: bivalent; P329G+LALA
Kd [1]: 12.2 µM
Kd [2]: 0.841 µM

B6: 42.8.200 (Fc fusion)
chain: APEAAGGPSVFLFPPKPKDTLMISRTPEVTCVVVDVSHEDPEVKFNWYVDGVEVHNAKTKPREEQYNSTYRVVSVLTVLHQDWLNGKEYKCKVSNKALGAPIEKTISKAKGQPREPQVYTLPPSRDELTKNQVSLTCLVKGFYPSDIAVEWFYEASKETNYKTTPPVLDSDGSFFLYSKLTVDKSRWQQGNLFACEVMHEALHNHYTYKLLSLSPGK
notes: bivalent; P329G+LALA
Kd [1]: 6.21 µM
Kd [2]: 0.505 µM

B7: 42.8.191 (Fc fusion)
chain: APEAAGGPSVFLFPPKPKDTLMISRTPEVTCVVVDVSHEDPEVKFNWYVDGVEVHNAKTKPREEQYNSTYRVVSVLTVLHQDWLNGKEYKCKVSNKALGAPIEKTISKAKGQPREPQVYTLPPSRDELTKNQVSLTCLVKGFYPSDIAVEWFYEGSKLTNYKTTPPVLDSDGSFFLYSKLTVDKSRWQQGNLFACEVMHEALHNHYTYKLLSLSPGK
notes: bivalent; P329G+LALA
Kd [1]: 8.14 µM
Kd [2]: 0.598 µM

B8: 42.8.193 (Fc fusion)
chain: APEAAGGPSVFLFPPKPKDTLMISRTPEVTCVVVDVSHEDPEVKFNWYVDGVEVHNAKTKPREEQYNSTYRVVSVLTVLHQDWLNGKEYKCKVSNKALGAPIEKTISKAKGQPREPQVYTLPPSRDELTKNQVSLTCLVKGFYPSDIAVEWFYEAQKENNYKTTPPVLDSDGSFFLYSKLTVDKSRWQQGNLFACEVMHEALHNHYTYKLLSLSPGK
notes: bivalent; P329G+LALA
Kd [1]: 13.3 µM
Kd [2]: 1.6 µM
